# Assay results from the supplement of paper PMC10567573.
# B1: CLCN6 (parent)
# chain: ILRSQLVTLLVRGVCYSESQSSAS
# B2: USP39 (parent)
# chain: FVEKNPTIVNFPITNVDLREYLSE
# Variants of: B1
# Test: protein stability index of a GFP-peptide fusion (GPS, HEK-293T) (PSI 1-6); higher = more stable
# Settings: c terminus: a fixed tail appended
# 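Also: lentivirally expressed fusions sorted by FACS into six bins by GFP to DsRed ratio, PSI derived from sequencing read proportions per bin multiplied by bin number.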
row,Variant,protein stability index
1,ILISQLVTLLVRGVCYSESQSSAS,3.78
2,ILMSQLVTLLVRGVCYSESQSSAS,2.62
3,ILPSQLVTLLVRGVCYSESQSSAS,2.36
4,ILASQLVTLLVRGVCYSESQSSAS,2.34
5,ILKSQLVTLLVRGVCYSESQSSAS,3.85
6,ILYSQLVTLLVRGVCYSESQSSAS,2.72
7,ILWSQLVTLLVRGVCYSESQSSAS,3.08
8,ILQSQLVTLLVRGVCYSESQSSAS,3.3
9,ILCSQLVTLLVRGVCYSESQSSAS,3.38
10,ILVSQLVTLLVRGVCYSESQSSAS,2.67
11,ILRSQLVTLQVRGVCYSESQSSAS,1.72
12,ILRSQLVTLPVRGVCYSESQSSAS,2.52
13,ILRSQLVTLSVRGVCYSESQSSAS,1.31
14,ILRSQLVTLNVRGVCYSESQSSAS,2.49
15,ILRSQLVTLAVRGVCYSESQSSAS,1.07
16,ILRSQLVTLDVRGVCYSESQSSAS,1.8
17,ILRSQLVTLCVRGVCYSESQSSAS,2.21
18,ILRSQLVTLHVRGVCYSESQSSAS,2.07
19,ILRSQLVTLTVRGVCYSESQSSAS,2.46
20,ILRSQLVTLGVRGVCYSESQSSAS,1.92
21,ILRSQLVTLEVRGVCYSESQSSAS,2.53
22,ILRSQLVTLKVRGVCYSESQSSAS,2.05
23,ILRSQLVTLVVRGVCYSESQSSAS,1.92
24,ILRSQLVTLWVRGVCYSESQSSAS,3.87

row,Variant,protein stability index
1,ILRSQLVTLYVRGVCYSESQSSAS,2.23
2,ILRSQLVTLIVRGVCYSESQSSAS,2.14
3,ILRSQLVTLMVRGVCYSESQSSAS,2.93
4,ILRSQLVTLRVRGVCYSESQSSAS,2.14
5,ILRSQLVTLLARGVCYSESQSSAS,2.77
6,ILRSQLVTLLNRGVCYSESQSSAS,3.1
7,ILRSQLVTLLSRGVCYSESQSSAS,1.78
8,ILRSQLVTLLGRGVCYSESQSSAS,2.39
9,ILRSQLVTLLRRGVCYSESQSSAS,2.01
10,ILRSQLVTLLCRGVCYSESQSSAS,2.1
11,ILRSQLVTLLWRGVCYSESQSSAS,2.92
12,ILRSQLVTLLKRGVCYSESQSSAS,2
13,ILRSQLVTLLPRGVCYSESQSSAS,2.1
14,ILRSQLVTLLTRGVCYSESQSSAS,2.8
15,ILRSQLVTLLERGVCYSESQSSAS,1.54
16,ILRSQLVTLLYRGVCYSESQSSAS,2.19
17,ILRSQLVTLLLRGVCYSESQSSAS,4.2
18,ILRSQLVTLLHRGVCYSESQSSAS,2.78
19,ILRSQLVTLLMRGVCYSESQSSAS,3.46
20,ILRSQLVTLLDRGVCYSESQSSAS,2.02
21,ILRSQLVTLLQRGVCYSESQSSAS,2
22,ILRSQLVTPLVRGVCYSESQSSAS,2.21
23,ILRSQLVTALVRGVCYSESQSSAS,3.4
24,ILRSQLVTFLVRGVCYSESQSSAS,4.09

row,Variant,protein stability index
1,ILRSQLVTCLVRGVCYSESQSSAS,3.61
2,ILRSQLVTWLVRGVCYSESQSSAS,2.83
3,ILRSQLVTMLVRGVCYSESQSSAS,2.5
4,ILRSQLVTDLVRGVCYSESQSSAS,1.77
5,ILRSQLVTSLVRGVCYSESQSSAS,1.6
6,ILRSQLVTQLVRGVCYSESQSSAS,1.69
7,ILRSQLVTGLVRGVCYSESQSSAS,1.8
8,ILRSQLVTELVRGVCYSESQSSAS,1.94
9,ILRSQLVTKLVRGVCYSESQSSAS,1.99
10,ILRSQLVTRLVRGVCYSESQSSAS,1.6
11,ILRSQLVTTLVRGVCYSESQSSAS,2.92
12,ILRSQLVTNLVRGVCYSESQSSAS,1.59
13,ILRSQLVTHLVRGVCYSESQSSAS,1.39
14,ILRSQQVTLLVRGVCYSESQSSAS,1.66
15,ILRSQVVTLLVRGVCYSESQSSAS,1.64
16,ILRSQGVTLLVRGVCYSESQSSAS,2.86
17,ILRSQMVTLLVRGVCYSESQSSAS,1.98
18,ILRSQPVTLLVRGVCYSESQSSAS,2.04
19,ILRSQFVTLLVRGVCYSESQSSAS,2.41
20,ILRSQIVTLLVRGVCYSESQSSAS,2.86
21,ILRSQEVTLLVRGVCYSESQSSAS,1.88
22,ILRSQYVTLLVRGVCYSESQSSAS,2.02
23,ILRSQKVTLLVRGVCYSESQSSAS,2.08
24,ILRSQAVTLLVRGVCYSESQSSAS,2.2

row,Variant,protein stability index
1,ILRSQWVTLLVRGVCYSESQSSAS,3.18
2,ILRSQSVTLLVRGVCYSESQSSAS,1.42
3,ILRSQCVTLLVRGVCYSESQSSAS,3.02
4,ILRSQRVTLLVRGVCYSESQSSAS,2.67
5,ILRSQNVTLLVRGVCYSESQSSAS,1.76
6,ILRSQHVTLLVRGVCYSESQSSAS,2.17
7,ILRSQTVTLLVRGVCYSESQSSAS,2
8,ILRSQDVTLLVRGVCYSESQSSAS,1.55
9,ILRYQLVTLLVRGVCYSESQSSAS,2.3
10,ILRIQLVTLLVRGVCYSESQSSAS,3.85
11,ILRDQLVTLLVRGVCYSESQSSAS,2.21
12,ILRMQLVTLLVRGVCYSESQSSAS,2.78
13,ILRWQLVTLLVRGVCYSESQSSAS,3.61
14,ILRLQLVTLLVRGVCYSESQSSAS,2.56
15,ILRKQLVTLLVRGVCYSESQSSAS,2.19
16,ILRNQLVTLLVRGVCYSESQSSAS,2.54
17,ILRVQLVTLLVRGVCYSESQSSAS,2.58
18,ILRTQLVTLLVRGVCYSESQSSAS,2.68
19,ILRHQLVTLLVRGVCYSESQSSAS,3.41
20,ILREQLVTLLVRGVCYSESQSSAS,3.85
21,HLRSQLVTLLVRGVCYSESQSSAS,1.82
22,CLRSQLVTLLVRGVCYSESQSSAS,2.09
23,KLRSQLVTLLVRGVCYSESQSSAS,3.63
24,FLRSQLVTLLVRGVCYSESQSSAS,3.23

row,Variant,protein stability index
1,SLRSQLVTLLVRGVCYSESQSSAS,3.03
2,RLRSQLVTLLVRGVCYSESQSSAS,2.09
3,PLRSQLVTLLVRGVCYSESQSSAS,2.04
4,LLRSQLVTLLVRGVCYSESQSSAS,3.03
5,WLRSQLVTLLVRGVCYSESQSSAS,3.34
6,GLRSQLVTLLVRGVCYSESQSSAS,2.2
7,TLRSQLVTLLVRGVCYSESQSSAS,2.87
8,MLRSQLVTLLVRGVCYSESQSSAS,3.86
9,ALRSQLVTLLVRGVCYSESQSSAS,3.79
10,DLRSQLVTLLVRGVCYSESQSSAS,3.23
11,ILRSCLVTLLVRGVCYSESQSSAS,3.81
12,ILRSMLVTLLVRGVCYSESQSSAS,3.17
13,ILRSYLVTLLVRGVCYSESQSSAS,3.81
14,ILRSWLVTLLVRGVCYSESQSSAS,1.44
15,ILRSDLVTLLVRGVCYSESQSSAS,2.31
16,ILRSPLVTLLVRGVCYSESQSSAS,2.72
17,ILRSKLVTLLVRGVCYSESQSSAS,2.79
18,ILRSTLVTLLVRGVCYSESQSSAS,2.06
19,ILRSELVTLLVRGVCYSESQSSAS,3.8
20,ILRSFLVTLLVRGVCYSESQSSAS,2.23
21,ILRSALVTLLVRGVCYSESQSSAS,1.97
22,ILRSSLVTLLVRGVCYSESQSSAS,3.4
23,ILRSNLVTLLVRGVCYSESQSSAS,3.29
24,ILRSVLVTLLVRGVCYSESQSSAS,2.98

row,Variant,protein stability index
1,ICRSQLVTLLVRGVCYSESQSSAS,3.49
2,IPRSQLVTLLVRGVCYSESQSSAS,2.01
3,IHRSQLVTLLVRGVCYSESQSSAS,1.3
4,IIRSQLVTLLVRGVCYSESQSSAS,3.02
5,ISRSQLVTLLVRGVCYSESQSSAS,3.23
6,IDRSQLVTLLVRGVCYSESQSSAS,1.66
7,IYRSQLVTLLVRGVCYSESQSSAS,3.62
8,IKRSQLVTLLVRGVCYSESQSSAS,2.42
9,IERSQLVTLLVRGVCYSESQSSAS,1.93
10,IFRSQLVTLLVRGVCYSESQSSAS,2.44
11,IQRSQLVTLLVRGVCYSESQSSAS,2.62
12,IGRSQLVTLLVRGVCYSESQSSAS,2.64
13,IMRSQLVTLLVRGVCYSESQSSAS,3.88
14,INRSQLVTLLVRGVCYSESQSSAS,2.06
15,IRRSQLVTLLVRGVCYSESQSSAS,1.95
16,ILRSQLLTLLVRGVCYSESQSSAS,3.31
17,ILRSQLETLLVRGVCYSESQSSAS,2.37
18,ILRSQLNTLLVRGVCYSESQSSAS,1.99
19,ILRSQLPTLLVRGVCYSESQSSAS,1.98
20,ILRSQLWTLLVRGVCYSESQSSAS,1.96
21,ILRSQLRTLLVRGVCYSESQSSAS,2.57
22,ILRSQLQTLLVRGVCYSESQSSAS,2.43
23,ILRSQLATLLVRGVCYSESQSSAS,2.81
24,ILRSQLSTLLVRGVCYSESQSSAS,2.18

row,Variant,protein stability index
1,ILRSQLDTLLVRGVCYSESQSSAS,2.45
2,ILRSQLTTLLVRGVCYSESQSSAS,2.46
3,ILRSQLCTLLVRGVCYSESQSSAS,2.66
4,ILRSQLITLLVRGVCYSESQSSAS,2.83
5,ILRSQLMTLLVRGVCYSESQSSAS,2.25
6,ILRSQLHTLLVRGVCYSESQSSAS,2.63
7,ILRSQLGTLLVRGVCYSESQSSAS,1.75
8,ILRSQLKTLLVRGVCYSESQSSAS,2.23
9,ILRSQLYTLLVRGVCYSESQSSAS,3.04
10,ILRSQLVTLLVWGVCYSESQSSAS,2.29
11,ILRSQLVTLLVAGVCYSESQSSAS,2.38
12,ILRSQLVTLLVKGVCYSESQSSAS,3.37
13,ILRSQLVTLLVSGVCYSESQSSAS,3.78
14,ILRSQLVTLLVTGVCYSESQSSAS,2.56
15,ILRSQLVTLLVHGVCYSESQSSAS,4.29
16,ILRSQLVTLLVNGVCYSESQSSAS,1.67
17,ILRSQLVTLLVDGVCYSESQSSAS,2
18,ILRSQLVTLLVIGVCYSESQSSAS,2.68
19,ILRSQLVTLLVLGVCYSESQSSAS,3.03
20,ILRSQLVTLLVPGVCYSESQSSAS,2.67
21,ILRSQLVTLLVVGVCYSESQSSAS,3.56
22,ILRSQLVYLLVRGVCYSESQSSAS,2.21
23,ILRSQLVPLLVRGVCYSESQSSAS,2.12
24,ILRSQLVVLLVRGVCYSESQSSAS,2.62

row,Variant,protein stability index
1,ILRSQLVWLLVRGVCYSESQSSAS,2.28
2,ILRSQLVNLLVRGVCYSESQSSAS,2.15
3,ILRSQLVRLLVRGVCYSESQSSAS,2.81
4,ILRSQLVKLLVRGVCYSESQSSAS,2.88
5,ILRSQLVHLLVRGVCYSESQSSAS,2.18
6,ILRSQLVMLLVRGVCYSESQSSAS,2.8
7,ILRSQLVELLVRGVCYSESQSSAS,3.03
8,ILRSQLVGLLVRGVCYSESQSSAS,2.01
9,ILRSQLVCLLVRGVCYSESQSSAS,3.51
10,ILRSQLVSLLVRGVCYSESQSSAS,2.29
11,ILRSQLVLLLVRGVCYSESQSSAS,1.83
12,ILRSQLVTLLVRLVCYSESQSSAS,2.53
13,ILRSQLVTLLVRDVCYSESQSSAS,3.12
14,ILRSQLVTLLVRFVCYSESQSSAS,4.5
15,ILRSQLVTLLVRIVCYSESQSSAS,2.7
16,ILRSQLVTLLVREVCYSESQSSAS,1.72
17,ILRSQLVTLLVRHVCYSESQSSAS,3.18
18,ILRSQLVTLLVRNVCYSESQSSAS,3.53

# Variants of: B2
# Test: as above
# Settings: c terminus: a fixed tail appended
row,Variant,protein stability index
1,FVEKNPTIVNFPITNVDLREYLSY,1.84
2,FVEKNPTIVNFPITNVDLREYLSW,1.93
